Results published in patent publication US20170190753A1 (LABORATOIRE FRANCAIS DU FRACTIONNEMENT ET DES …, published 2017).

B1: pCEP4-1NT4-16CT20 (other)
chain: EDCNELPPRRNTEILTGSWSDQTYPEGTQAIYKCRPGYRSLGNVIMVCRKGEWVALNPLRKCQKRPCGHPGDTPFGTFTLTGGNVFEYGVKAVYTCNEGYQLLGEINYRECDTDGWTNDIPICEVVKCLPVTAPENGKIVSSAMEPDREYHFGQAVRFVCNSGYKIEGDEEMHCSDDGFWSKEKPKCVEISCKSPDVINGSPISQKIIYKENERFQYKCNMGYEYSERGDAVCTESGWRPLPSCEEKSGASGCKSPPEISHGVVAHMSDSYQYGEEVTYKCFEGFGIDGPAIAKCLGEKWSHPPSCIKTDCLSLPSFENAIPMGEKKDVYKAGEQVTYTCATYYKMDGASNVTCINSRWTGRPTCRDTSCVNPPTVQNAYIVSRQMSKYPSGERVRYQCRSPYEMFGDEEVMCLNGNWTEPPQCKDSTGKCGPPPPIDNGDITSFPLSVYAPASSVEYQCQNLYQLEGNKRITCRNGQWSEPPKCLHPCVISREIMENYNIALRWTAKQKLYSRTGESVEFVCKRGYRLSSRSHTLRTTCWDGKLEYPTCAKRGGSGHHHHHH
B2: pCEP4-1NT7-14CT20 (other)
chain: EDCNELPPRRNTEILTGSWSDQTYPEGTQAIYKCRPGYRSLGNVIMVCRKGEWVALNPLRKCQKRPCGHPGDTPFGTFTLTGGNVFEYGVKAVYTCNEGYQLLGEINYRECDTDGWTNDIPICEVVKCLPVTAPENGKIVSSAMEPDREYHFGQAVRFVCNSGYKIEGDEEMHCSDDGFWSKEKPKCVEISCKSPDVINGSPISQKIIYKENERFQYKCNMGYEYSERGDAVCTESGWRPLPSCEEKSCDNPYIPNGDYSPLRIKHRTGDEITYQCRNGFYPATRGNTAKCTSTGWIPAPRCTLKPCDYPDIKHGGLYHENMRRPYFPVAVGKYYSYYCDEHFETPSGSYWDHIHCTQDGWSPAVPCLRKCYFPYLENGYNQNYGRKFVQGKSIDVACHPGYALPKAQTTVTCMENGWSPTPRCIRVKTGASGCPPPPQIPNSHNMTTTLNYRDGEKVSVLCQENYLIQEGEEITCKDGRWQSIPLCVEKIPCSQPPQIEHGTINSSRSSQESYAHGTKLSYTCEGGFRISEENETTCYMGKWSSPPQCEGLPCKSPPEISHGVVAHMSDSYQYGEEVTYKCFEGFGIDGPAIAKCLGEKWSHPPSCIKTDCLSLPSFENAIPMGEKKDVYKAGEQVTYTCATYYKMDGASNVTCINSRWTGRPTCRDTSCVNPPTVQNAYIVSRQMSKYPSGERVRYQCRSPYEMFGDEEVMCLNGNWTEPPQCKDSTGKCGPPPPIDNGDITSFPLSVYAPASSVEYQCQNLYQLEGNKRITCRNGQWSEPPKCLHPCVISREIMENYNIALRWTAKQKLYSRTGESVEFVCKRGYRLSSRSHTLRTTCWDGKLEYPTCAKRGGSGHHHHHH

Biological target: C3 convertase complex (UniProt P01024 23-1663; P00751 260-764)
Test: cell-based or functional assay
Wherever C3 convertase activity % of the control is given: test concentration or dose not given here.

C3 convertase complex, sequence (P01024 23-1663, chain 1 of 2): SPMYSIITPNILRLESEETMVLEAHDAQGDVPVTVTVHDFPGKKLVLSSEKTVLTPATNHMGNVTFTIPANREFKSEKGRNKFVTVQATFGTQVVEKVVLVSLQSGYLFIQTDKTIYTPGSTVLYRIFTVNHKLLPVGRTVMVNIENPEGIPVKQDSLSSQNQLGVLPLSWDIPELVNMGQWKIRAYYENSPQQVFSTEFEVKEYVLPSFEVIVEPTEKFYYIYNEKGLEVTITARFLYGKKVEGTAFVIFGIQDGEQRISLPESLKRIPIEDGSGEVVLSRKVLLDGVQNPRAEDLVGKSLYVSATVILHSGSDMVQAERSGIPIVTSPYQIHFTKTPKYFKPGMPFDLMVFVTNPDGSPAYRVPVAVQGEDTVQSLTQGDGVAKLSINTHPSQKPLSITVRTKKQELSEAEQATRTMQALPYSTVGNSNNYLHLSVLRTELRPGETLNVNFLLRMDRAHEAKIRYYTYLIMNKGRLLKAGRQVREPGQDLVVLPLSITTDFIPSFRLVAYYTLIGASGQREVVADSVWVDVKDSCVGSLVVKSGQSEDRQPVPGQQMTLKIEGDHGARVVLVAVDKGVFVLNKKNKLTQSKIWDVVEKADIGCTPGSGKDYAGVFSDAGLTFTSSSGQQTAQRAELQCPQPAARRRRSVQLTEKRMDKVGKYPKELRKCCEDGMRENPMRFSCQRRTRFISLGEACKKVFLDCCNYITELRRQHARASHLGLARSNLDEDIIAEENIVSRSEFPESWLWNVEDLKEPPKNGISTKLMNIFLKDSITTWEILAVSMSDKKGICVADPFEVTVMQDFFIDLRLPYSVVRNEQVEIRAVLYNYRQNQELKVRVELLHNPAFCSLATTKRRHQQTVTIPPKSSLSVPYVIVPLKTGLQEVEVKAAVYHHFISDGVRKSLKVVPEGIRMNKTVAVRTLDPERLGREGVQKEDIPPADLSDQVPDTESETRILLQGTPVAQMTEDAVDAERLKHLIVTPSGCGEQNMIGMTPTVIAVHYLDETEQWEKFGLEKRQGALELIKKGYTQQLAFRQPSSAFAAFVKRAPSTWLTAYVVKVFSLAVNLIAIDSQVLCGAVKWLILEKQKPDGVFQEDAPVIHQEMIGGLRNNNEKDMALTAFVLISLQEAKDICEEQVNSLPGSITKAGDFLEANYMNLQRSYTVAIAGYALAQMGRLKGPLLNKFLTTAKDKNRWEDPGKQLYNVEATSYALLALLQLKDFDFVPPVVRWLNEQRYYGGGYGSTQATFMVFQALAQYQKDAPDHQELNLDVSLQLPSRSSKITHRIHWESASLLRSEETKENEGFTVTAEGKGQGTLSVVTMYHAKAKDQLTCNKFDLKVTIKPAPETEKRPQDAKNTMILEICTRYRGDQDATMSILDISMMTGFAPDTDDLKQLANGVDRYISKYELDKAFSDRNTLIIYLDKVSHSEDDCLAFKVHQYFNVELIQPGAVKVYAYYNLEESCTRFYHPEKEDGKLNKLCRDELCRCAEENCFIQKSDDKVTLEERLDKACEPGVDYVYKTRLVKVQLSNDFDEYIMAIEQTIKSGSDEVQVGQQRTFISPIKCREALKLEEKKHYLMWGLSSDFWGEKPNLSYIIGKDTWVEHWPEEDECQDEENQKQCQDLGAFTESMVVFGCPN
C3 convertase complex, sequence (P00751 260-764, chain 2 of 2): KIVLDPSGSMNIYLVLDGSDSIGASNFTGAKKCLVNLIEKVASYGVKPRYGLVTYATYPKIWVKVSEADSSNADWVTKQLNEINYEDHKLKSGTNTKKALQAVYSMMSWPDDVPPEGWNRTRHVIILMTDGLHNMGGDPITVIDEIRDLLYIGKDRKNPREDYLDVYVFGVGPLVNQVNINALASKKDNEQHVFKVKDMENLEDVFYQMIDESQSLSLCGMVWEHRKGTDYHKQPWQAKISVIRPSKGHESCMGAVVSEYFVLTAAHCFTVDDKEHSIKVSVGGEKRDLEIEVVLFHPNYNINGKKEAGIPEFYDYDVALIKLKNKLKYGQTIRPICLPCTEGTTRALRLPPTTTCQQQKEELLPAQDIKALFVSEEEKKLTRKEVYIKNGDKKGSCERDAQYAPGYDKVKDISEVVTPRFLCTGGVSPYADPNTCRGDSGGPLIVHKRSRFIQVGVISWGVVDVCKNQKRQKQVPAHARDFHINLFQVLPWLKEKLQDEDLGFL

Binder | C3 convertase activity % of the control | C3 convertase activity IC50 [µg/mL]
B1 | 239 % of the control | 0.0281
B2 | 104 % of the control | 0.0645
